According to article PMC11336091:

Target: T1, BmFoxO (Bombyx mori, UniProt H9BVM3 1-512)
T1 sequence: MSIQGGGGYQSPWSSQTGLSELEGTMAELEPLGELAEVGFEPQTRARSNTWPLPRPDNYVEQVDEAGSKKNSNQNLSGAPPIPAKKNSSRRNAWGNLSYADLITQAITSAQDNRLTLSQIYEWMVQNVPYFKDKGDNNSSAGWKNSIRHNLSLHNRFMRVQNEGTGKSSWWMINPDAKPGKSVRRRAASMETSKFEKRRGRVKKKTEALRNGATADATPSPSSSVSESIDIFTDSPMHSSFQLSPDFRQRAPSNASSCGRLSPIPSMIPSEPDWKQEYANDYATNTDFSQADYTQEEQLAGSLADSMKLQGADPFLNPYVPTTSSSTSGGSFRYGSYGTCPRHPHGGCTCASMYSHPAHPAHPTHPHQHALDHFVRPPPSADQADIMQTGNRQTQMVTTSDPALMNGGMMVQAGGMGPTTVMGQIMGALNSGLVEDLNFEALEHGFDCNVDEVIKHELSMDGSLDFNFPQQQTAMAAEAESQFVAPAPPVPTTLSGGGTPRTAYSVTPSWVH
Assay: EMSA

B1: BmOSER1 promoter EMSA probe (dsDNA)
DNA 1: TGTATTAAAAACTTATATAAACTGTGATCT
DNA 2: AGATCACAGTTTATATAAGTTTTTAATACA
**Q.** Does B1 bind?
**A.** Result: binds
